Test results: patent publication US20250188188A1 (DIANTHUS THERAPEUTICS OPCO, published 2025)

Tests used:
[1] = molecular target: T1, active human C1s purified from human serum (CompTech, Tyler, TX, catalog number A104) (human, UniProt P09871 16-437; P09871 438-688); experiment: SPR (Biacore T100), 37 C pH 7.4, antibody captured via goat anti-human antibody, C1s in solution, n=2; Table 17 experiment, apart from Table 12
T1 construct: Serum-derived material, biotinylated for the ELISA; also called human active C1s; active C1s
T1 sequence 1: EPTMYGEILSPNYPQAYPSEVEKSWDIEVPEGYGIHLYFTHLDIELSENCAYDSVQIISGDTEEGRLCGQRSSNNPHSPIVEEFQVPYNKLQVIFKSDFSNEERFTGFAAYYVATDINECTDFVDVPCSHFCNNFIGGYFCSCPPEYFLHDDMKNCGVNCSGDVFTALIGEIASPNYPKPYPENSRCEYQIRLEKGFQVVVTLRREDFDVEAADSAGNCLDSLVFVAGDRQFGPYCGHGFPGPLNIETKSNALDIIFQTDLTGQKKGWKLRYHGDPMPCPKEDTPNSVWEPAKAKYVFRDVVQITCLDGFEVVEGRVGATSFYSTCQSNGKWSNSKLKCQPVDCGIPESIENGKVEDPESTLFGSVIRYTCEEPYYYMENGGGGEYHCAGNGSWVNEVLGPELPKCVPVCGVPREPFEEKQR
T1 sequence 2: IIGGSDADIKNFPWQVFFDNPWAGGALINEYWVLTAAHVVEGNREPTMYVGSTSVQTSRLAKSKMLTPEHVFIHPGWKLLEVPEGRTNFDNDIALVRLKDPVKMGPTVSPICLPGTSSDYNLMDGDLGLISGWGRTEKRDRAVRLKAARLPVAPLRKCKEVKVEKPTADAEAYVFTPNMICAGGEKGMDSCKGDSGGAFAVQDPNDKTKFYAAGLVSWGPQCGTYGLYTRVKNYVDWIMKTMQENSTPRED
Procedure: (§1) Binding of MAB39 and MAB9 to Human Active C1s at 37° C./pH 7.4 Measured by Surface Plasmon Resonance. Human active C1s purified from serum was procured from Complement Technologies, Tyler, TX (catalog number A104). Studies to evaluate MAB39 and MAB9 binding to human active C1s at 37° C. were performed on a Biacore 4000 and Biacore T100 (Cytiva, Marlborough, MA), respectively. Goat anti-human antibody (ThermoFisher, Waltham, MA, USA, catalog number H10500) was amine-coupled to a C1 sensor chip (Cytiva, Marlborough, MA, USA, catalog number BR100535). MAB39 was diluted to 6.67 nM and MAB9 was diluted to 10 nM in 50 mM HEPES pH 7.4, 150 mM NaCl, 1.3 mM Ca, 0.02% Tween-20, 1 mg/mL BSA (HBS). MAB39 was captured for 60 seconds to produce surface densities of 200 RU and MAB9 was captured for 30 seconds to produce surface densities of 10 to 20 RU. Human active C1s was tested for binding using a 3-fold titration series in HBS with a maximum concentration of 12.3 nM for MAB39 and 16 nM for MAB9. Data were processed by subtracting responses from a reference surface as well as a buffer injection. […]
(§2) Comparison of Binding Affinities of MAB39 and MAB9 to Human Active C1s by Surface Plasmon Resonance. The human active C1s association constant (ka), disassociation constant (kd) and affinity (KD) for MAB39 and MAB9 were determined in separate experiments (Table 17). […]

[2] = molecular target: T1, active human C1s purified from human …; experiment: cell-based or functional assay
[3] = molecular target: T1, active human C1s purified from human …; experiment: cell-based or functional assay; remark: listed apart in the source
[4] = molecular target: T1, active human C1s purified from human …; experiment: cell-based or functional assay; remark: listed apart in the source
[5] = molecular target: T1, active human C1s purified from human …; experiment: SPR, direct comparison
[6] = molecular target: T1, active human C1s purified from human …; experiment: cell-based or functional assay; remark: listed apart in the source
[7] = molecular target: T1, active human C1s purified from human …; experiment: SPR (Biacore T100), 37 C pH 7.4, antibody captured via goat anti-human antibody, C1s in solution, n=2
Procedure: as §1, §2

[8] = molecular target: T1, active human C1s purified from human …; experiment: cell-based or functional assay; remark: listed apart in the source

Kd [1]: 0.0071 nM
IC50 in the RBC lysis assay (FIG. 4C) [4]: 17.6 nM
fold improvement in potency (IC50, RBC lysis assay) against MAB2 (US20220380483A1) [4]: > 3 fold
fold higher affinity than MAB2 (US20220380483A1) [5]: ~10 fold
koff [7]: 0.00012 s⁻¹
kon [7]: 1.69e+07 M⁻¹ s⁻¹
IC50, inhibition of Wieslab complement classical pathway (C5b-9 ELISA), 1% human serum [8]: 0.78 nM
B1: IgG4-MAB9 (MAB9 in human IgG4 with S228P, L235E and YTE) (antibody)
heavy: QVQLVESGGGLVKPGGSLRLSCAASGFTFSDYYMSWIRQAPGKGLEWVSYISRSGSTKYYADSVKGRFTISRDNAKNSLYLQMNSLRAEDTAVYYCARDENYALDWWGQGTLVTVSSASTKGPSVFPLAPCSRSTSESTAALGCLVKDYFPEPVTVSWNSGALTSGVHTFPAVLQSSGLYSLSSVVTVPSSSLGTKTYTCNVDHKPSNTKVDKRVESKYGPPCPPCPAPEFEGGPSVFLFPPKPKDTLYITREPEVTCVVVDVSQEDPEVQFNWYVDGVEVHNAKTKPREEQFNSTYRVVSVLTVLHQDWLNGKEYKCKVSNKGLPSSIEKTISKAKGQPREPQVYTLPPSQEEMTKNQVSLTCLVKGFYPSDIAVEWESNGQPENNYKTTPPVLDSDGSFFLYSRLTVDKSRWQEGNVFSCSVMHEALHNHYTQKSLSLSLG
light: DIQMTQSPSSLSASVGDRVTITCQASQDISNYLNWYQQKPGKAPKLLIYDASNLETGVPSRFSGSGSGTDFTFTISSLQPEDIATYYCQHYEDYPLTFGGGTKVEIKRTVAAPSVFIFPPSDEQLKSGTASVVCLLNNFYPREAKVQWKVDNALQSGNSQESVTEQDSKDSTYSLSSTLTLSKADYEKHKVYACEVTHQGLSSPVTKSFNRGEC
notes: also called MAB9 with constant domain PE and YTE mutations
IC50, inhibition of C3b deposition on sensitized hRBCs in 7.5% human serum (flow cytometry), Donor A [2]: 64.1 nM
IC50, inhibition of C3b deposition on sensitized hRBCs in 7.5% human serum (flow cytometry), Donor B (1) [2]: 124 nM
IC50, inhibition of C3b deposition on sensitized hRBCs in 7.5% human serum (flow cytometry), Donor B (2) [2]: 202 nM
IC50, inhibition of sensitized hRBC lysis in 25% human serum, Donor 1 [3]: 12.9 nM
IC50, inhibition of sensitized hRBC lysis in 25% human serum, Donor 2 [3]: 22.1 nM
IC50, inhibition of sensitized hRBC lysis in 25% human serum, Donor 3 [3]: 5.8 nM
IC50, inhibition of sensitized hRBC lysis in 25% human serum [6]: 17.6 nM
